These results are taken from patent US20150197558A1 (published 2015).

Substitutions are numbered along the chain they refer to.

In experiment [1] the target is T1, IHF from Staphylococcus aureus (Staphylococcus aureus, UniProt Q5HFV0 1-90).
T1 construct: also called IHF (Sa); HU; not shown: poly-histidine tag
T1 sequence: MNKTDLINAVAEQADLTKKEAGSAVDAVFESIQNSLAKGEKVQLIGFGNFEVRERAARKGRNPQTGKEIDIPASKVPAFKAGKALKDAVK
Briefly: ELISA.

The target in experiment [2] is T1, IHF from Staphylococcus aureus. Briefly: ELISA, antigen coated, half-maximal binding concentration printed as Affinity (pM). A general note: In an ELISA, binding on a coated surface is turned into a signal by an enzyme label.
For experiment [3], the target named is T2, IHF from Acinetobacter baumannii (Acinetobacter baumannii, UniProt A3M2B0 1-98).
T2 construct: also called Ab
T2 sequence: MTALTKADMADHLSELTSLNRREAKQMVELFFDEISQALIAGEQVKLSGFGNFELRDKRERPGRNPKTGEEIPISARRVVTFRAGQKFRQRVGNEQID
The experiment is described as above.

Experiment [4] concerns the target T3, IHF from Pseudomonas aeruginosa (Pseudomonas aeruginosa, UniProt Q51472 2-100).
T3 construct: also called IHF (Pa); P. aeruginosa; not shown: poly-histidine tag
T3 sequence: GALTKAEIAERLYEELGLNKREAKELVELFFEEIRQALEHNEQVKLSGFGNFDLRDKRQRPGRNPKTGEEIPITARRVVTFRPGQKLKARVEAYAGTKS
Briefly: ELISA.

For experiment [5], the target named is T4, IHF from Klebsiella pneumoniae (Klebsiella pneumoniae, UniProt A6TAI1 1-99).
T4 construct: also called IHF (Kp); K. pneumoniae
T4 sequence: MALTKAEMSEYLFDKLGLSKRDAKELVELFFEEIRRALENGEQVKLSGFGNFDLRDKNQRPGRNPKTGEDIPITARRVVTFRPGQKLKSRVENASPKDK
Put plainly: ELISA.

For experiment [6], the target named is T5, IHF from Haemophilus influenzae (Haemophilus influenzae, UniProt P43723 1-96).
T5 construct: also called IHF (Hi); H. influenzae; not shown: poly-histidine tag
T5 sequence: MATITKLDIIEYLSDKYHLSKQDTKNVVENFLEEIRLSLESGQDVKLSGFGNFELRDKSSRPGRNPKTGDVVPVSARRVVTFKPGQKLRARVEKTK
Put plainly: ELISA.

Experiment [7] has as its target IHF target of the pH table of Example 7 (homolog not stated). Put plainly: pH dependence of binding, pH 3.5; ELISA per legend of FIGS. 6A-6B.
For experiment [8] the target is unchanged. Briefly: pH dependence of binding, pH 4.5; ELISA per legend of FIGS. 6A-6B.
The target of experiment [9] is T3, IHF from Pseudomonas aeruginosa. Briefly: ELISA, antigen coated, half-maximal binding concentration printed as Affinity (pM).
Experiment [10] has as its target T4, IHF from Klebsiella pneumoniae. The description is as above.
The target in experiment [11] is T5, IHF from Haemophilus influenzae. The experiment is described as above.
Experiment [12] deals with IHF target of the pH table of Example 7 (homolog not stated). Briefly: pH dependence of binding, pH 7.5; ELISA per legend of FIGS. 6A-6B.
Experiment [13] has as its target T3, IHF from Pseudomonas aeruginosa. Briefly: BLI, ForteBio Octet QK, ratio of on and off rates.
For experiment [14], the target named is T1, IHF from Staphylococcus aureus. Briefly: BLI, ForteBio Octet QK, ratio of on and off rates. Background: BLI is a label-free optical method that tracks binding on a fibre tip over time.
Experiment [15] has as its target T4, IHF from Klebsiella pneumoniae. Put plainly: BLI, ForteBio Octet QK, ratio of on and off rates.
The target in experiment [16] is T5, IHF from Haemophilus influenzae. Briefly: BLI, ForteBio Octet QK, ratio of on and off rates.
For experiment [17], the target named is IHF target of the pH table of Example 7 (homolog not stated). Put plainly: pH dependence of binding, pH 5.5; ELISA per legend of FIGS. 6A-6B.
Experiment [18] shares this target. Briefly: pH dependence of binding, pH 2.5; ELISA per legend of FIGS. 6A-6B.
Experiment [19] has the same target. Put plainly: pH dependence of binding, pH 6.5; ELISA per legend of FIGS. 6A-6B.
Experiment [20] has as its target peptide 19 of the set of overlapping 15-mer peptides from the IHF of Staphylococcus aureus (Staphylococcus aureus). Briefly: peptide binding on streptavidin plates.
The target of experiment [21] is peptide 26 of the set of overlapping 15-mer peptides from the IHF of Staphylococcus aureus (Staphylococcus aureus). Briefly: peptide binding on streptavidin plates.
The target in experiment [22] is peptide 20 of the set of overlapping 15-mer peptides from the IHF of Staphylococcus aureus (Staphylococcus aureus). Put plainly: peptide binding on streptavidin plates.

B1: TRL1215 (antibody, V domains shown)
VH: QVQLVESGTEVKNPGASVKVSCTASGYKFDEYGVSWVRQSPGQGLEWMGWISVYNGKTNYSQNFQGRLTLTTETSTDTAYMELTSLRPDDTAVYYCATDKNWFDPWGPGTLVTVSS
VL: DIVMTQSPSASGSPGQSITISCTGTNTDYNYVSWYQHHPGKAPKVIIYDVKKRPSGVPSRFSGSRSGNTATLTVSGLQTEDEADYYCVSYADNNHYVFGSGTKVTVL
For the molecule B1, the OD in experiment [1] amounted to 1.4 OD.

B2: TRL1330 (antibody, V domains shown)
VH: B1 VH
VL: B1 VL with M4L
Regarding B2, the half-maximal effective concentration (EC50) (commonly the concentration at which the effect is half-maximal) in experiment [2] came out at 0.023 nM; in experiment [3], 0.017 nM.

B3: TRL1087 (antibody, V domains shown)
VH: QVQLLESGPGLVRPSDTLSLTCTFSADLSTNAYWTWIRQPPGKGLEWIGYMSHSGGRDYNPSFNRRVTISVDTSKNQVFLRLTSVTSADTAVYFCVREVGSYYDYWGQGILVTVSS
VL: DIEMTQSPSSLSASVGDRITITCRASQGISTWLAWYQQKPGKAPKSLIFSTSSLHSGVPSKFSGSGSGTDFTLTITNLQPEDFATYYCQQKWETPYSFGQGTKLDMIR
In the case of B3, the OD is 0.06 OD in [4], 0.14 OD in experiment [1], 0.06 OD in experiment [5] and 0.06 OD in experiment [6].

B4: TRL1216 (antibody, V domains shown)
VH: QVQLVESGGGVVQPGGSLRVSCAASAFSFRDYGIHWVRQAPGKGLQWVAVISHDGGKKFYADSVRGRFTISRDNSENTLYLQMNSLRSDDTAVYYCARLVASCSGSTCTTQPAAFDIWGPGTLVTVSS
VL: DIMLTQPPSVSVSPGQTARITCSGDALPKKYTYWYQQKSGQAPVLLIYEDRKRPSEIPERFSAFTSWTTATLTITGAQVRDEADYYCYSTDISGDIGVFGGGTKLTVL
With B4, the OD in [1] was 0.5 OD; in experiment [6], 0.06 OD.

B5: TRL1218 (antibody, V domains shown)
VH: QVQLLESGADMVQPGRSLRLSCAASGFNFRTYAMHWVRQAPGKGLEWVAVMSHDGYTKYYSDSVRGQFTISRDNSKNTLYLQMNNLRPDDTAIYYCARGLTGLSVGFDYWGQGTLVTVSS
VL: DIVLTQSASVSGSPGQSITISCTGTSSDVGGYNYVSWYQQHPGKAPKLMIYDVTTRPSGVSDRFSGSKSGNTASLTISGLQAEDEADYYCSSYSSGSTPALFGGGTQLTVL
As for B5, the OD in experiment [4] is 0.09 OD; in [5], 0.06 OD; in experiment [6] it was 0.04 OD.

B6: TRL1068 (antibody, V domains shown)
VH: QVQLVESGPGLVKPSETLSLTCRVSGDSNRPSYWSWIRQAPGKAMEWIGYVYDSGVTIYNPSLKGRVTISLDTSKTRFSLKLTSVIAADTAVYYCARERFDRTSYKSWWGQGTQVTVSS
VL: DIVLTQAPGTLSLSPGDRATLSCRASQRLGGTSLAWYQHRSGQAPRLILYGTSNRATDTPDRFSGSGSGTDFVLTISSLEPEDFAVYYCQQYGSPPYTFGQGTTLDIK
For the molecule B6, the equilibrium dissociation constant (Kd) (usually the equilibrium constant for the complex coming apart) in experiment [7] turned out to be 1.2 nM; in [8] it was 0.0236 nM; in experiment [12], 0.007 nM; in experiment [13], 1 nM; in experiment [14] it was 1 nM; in experiment [15], 7 nM. Moreover, the Kd in experiment [16] was determined as 350 nM; in experiment [17], 0.009 nM; in experiment [18] it was 2.7 nM; in [19], 0.0076 nM. Also, the concentration giving a half-maximal response (EC50) in experiment [9] amounted to 0.011 nM; in experiment [2] it was 0.015 nM; in experiment [10] it was 0.011 nM; in experiment [11] it was 5 nM; in experiment [3], 0.01 nM.

B7: TRL1230 (antibody, V domains shown)
VH: QVQLVQSGGGLVKPGGSLRLSCGASGFNLSSYSMNWVRQAPGKGLEWVSSISSRSSYIYYADSVQGRFTISRDNAKNSLYLQMNSLRAEDTAIYYCARVSPSTYYYYGMDVWGQGTTVTVSS
VL: DIVLTQPSSVSVSPGQTARITCSGDELPKQYAYWYQQKPGQAPVLVIYKDNERPSGIPERFSGSSSGTTVTLTISGVQAEDEADYYCQSADSSGTYVVFGGGTKLTVL
On to B7, for which the OD in experiment [4] was determined as 0.3 OD; in [1], 0.1 OD; in experiment [5], 0.07 OD; in experiment [6] it was 0.06 OD.

B8: TRL1232 (antibody, V domains shown)
VH: QVQLVESGAEVKKPGALVKVSCKASGYTFSGYYMHWVRQAPGQGLEWMGWINPKSGGTKYAQKFQGRVTMTRDTSISTAYMELSRLRSDDTAVYFCARGGPSNLERFLERLQPRYSYDDKYAMDVWGQGTTVTVSS
VL: DIVMTQSPGTLSLSPGARATLSCRASQSVSSIYLAWYQQKPGQAPRLLIFGASSRATGIPDRFSGSGSGTDFTLTISRLEPEDFAVYYCQQYGSSPYTFGQGTKLEIKR
As to B8, the OD in experiment [4] was found to be 0.2 OD; in experiment [1], 0.2 OD; in [5], 0.1 OD; in experiment [6], 0.1 OD.

B9: TRL1335 (antibody, V domains shown)
VH: QVQLVESGAEVKKPGESLKISCKGSGYNFTSYWIGWVRQMPGKGLEWMGVIYPDDSDTRYSPSFKGQVTISADKSISTAFLQWSSLKASDTAVYHCARPPDSWGQGTLVTVSS
VL: DIVMTQSPATLSVSPGERATLSCRASQSVSSNLAWYQQKPGLAPRLLIVGASNRATGIPARFSGSGSGTEFTLTISSLQSEDFAFYYCQQYNNWPFTFGPGTKVDVKR
Turning to B9, the binding result in experiment [20], in experiment [21] and in [22] was “no binding” throughout.

B10: TRL1070 (antibody, V domains shown)
VH: QVQLVQSGGTLVQPGGSLRLSCAASGFTFSYYSMSWVRQAPGKGLEWVANIKHDGTERNYVDSVKGRFTISRDNSEKSLYLQMNSLRAEDTAVYYCAKYYYGAGTNYPLKYWGQGTRVTVSS
VL: DILMTQSPSSLSASVGDRVTITCRASQGIRNDLGWYQQKPGKAPKLLIYAASSLQSGVPSRFSGSGSGTDFTLTISSLQPEDFATYYCLQDYNYPLTFGGGTKVEIKR
Regarding B10, the figures for the OD in experiment [1] and in experiment [6] were 0.3 OD and 0.11 OD, respectively.
